In patent publication US20180186873A1 (CEPHALON, published 2018):
Substitutions are numbered along the chain they refer to. Each block holds one binder with its values, some of them ahead of it.

Experiments:
recombinant human IL-5 [1] = target: recombinant human IL-5 (human, UniProt P05113 20-134); experiment: Biacore SPR, Ab supernatant on Protein A chip
recombinant human IL-5 [2] = target: recombinant human IL-5 (human, UniProt P05113 20-134); experiment: SPR
recombinant human IL-5 [3] = target: T1, recombinant human IL-5 (human, UniProt P05113 20-134); experiment: SPR, Ab supernatant on Protein A chip, IL-5 analyte, run 3.2, average of 5
recombinant human IL-5 [4] = target: T1, recombinant human IL-5; experiment: SPR, purified Ab on Protein A chip, IL-5 analyte, run 3.2

B1: 3A5.481 (antibody, human IgG4 S228P, lambda, name in Kabat numbering, V domains shown)
VH: QVQLQESGPGLVKPSQTLSLTCTVSGGSISNGGYYWSWIRQHPGKGLEWIGYIYYSGSTYYNPSLKSRVTISVDTSKNQFSLKLSSVTAADTAVYYCSSLGNWFDYWGQGTLVTVSS
VL: SYVLTQPPSVSVAPGQTARITCGGNNIGSKNVYWYQQKPGQAPVLVVHDDSDRPSGIPERFSGSNSGNTATLTISRVEVGDEADYSCQVWDSSSDHVVFGGGTKLTVLG
- % 3A5.040 kd (recombinant human IL-5 [1]): 112%
- Kd (recombinant human IL-5 [1]): 130 pM

B4: 3A5.491 (antibody, human IgG4 S228P, lambda, name in Kabat numbering, V domains shown)
VH: B1 VH with S98A, S99L
VL: B1 VL
- % 3A5.040 kd (recombinant human IL-5 [1]): 13%
- Kd (recombinant human IL-5 [1]): 1520 pM

B9: 3A5.482 (antibody, human IgG4 S228P, lambda, name in Kabat numbering, V domains shown)
VH: B1 VH with S98L
VL: B1 VL
- % 3A5.040 kd (recombinant human IL-5 [1]): 52%
- Kd (recombinant human IL-5 [1]): 790 pM

B11: 3A5.485 (antibody, human IgG4 S228P, lambda, name in Kabat numbering, V domains shown)
VH: B1 VH with S98Q
VL: B1 VL
- % 3A5.040 kd (recombinant human IL-5 [1]): 105%
- Kd (recombinant human IL-5 [1]): 154 pM

B12: 3A5.040 (antibody, human IgG4 S228P, lambda)
heavy: not shown
light: SYVLTQPPSVSVAPGQTARITCGGNNIGSKNVYWYQQKPGQAPVLVVHDDSDRPSGIPERFSGSNSGNTATLTISRVEVGDEADYSCQVWDSSSDHVVFGGGTKLTVLGQPKAAPSVTLFPPSSEELQANKATLVCLISDFYPGAVTVAWKADSSPVKAGVETTTPSKQSNNKYAASSYLSLTPEQWKSHRSYSCQVTHEGSTVEKTVAPTECS
- Kd (recombinant human IL-5 [3]): 131 pM
- koff (recombinant human IL-5 [3]): 9.07e-05 s⁻¹
- kon (recombinant human IL-5 [3]): 695000 M⁻¹ s⁻¹
- Kd (recombinant human IL-5 [4]): 116 pM
- koff (recombinant human IL-5 [4]): 8.25e-05 s⁻¹
- kon (recombinant human IL-5 [4]): 712000 M⁻¹ s⁻¹

Next, values leading:

- % 3A5.040 kd (recombinant human IL-5 [2]): 34%
- Kd (recombinant human IL-5 [2]): 431 pM
B2: 3A5.495 (antibody, human IgG4 S228P, lambda, name in Kabat numbering, V domains shown)
VH: B1 VH with S98A, S99K
VL: B1 VL

- % 3A5.040 kd (recombinant human IL-5 [2]): 85%
- Kd (recombinant human IL-5 [2]): 263 pM
B3: 3A5.498 (antibody, human IgG4 S228P, lambda, name in Kabat numbering, V domains shown)
VH: B1 VH with S98A, S99P
VL: B1 VL

- % 3A5.040 kd (recombinant human IL-5 [1]): 2%
- Kd (recombinant human IL-5 [1]): 2110 pM
B5: 3A5.496 (antibody, human IgG4 S228P, lambda, name in Kabat numbering, V domains shown)
VH: B1 VH with S98A, S99H
VL: B1 VL

- Kd (recombinant human IL-5 [1]): 128 pM
B6: 3A5.490 (antibody, human IgG4 S228P, lambda, name in Kabat numbering, V domains shown)
VH: B1 VH with S98A, S99A
VL: B1 VL

- % 3A5.040 kd (recombinant human IL-5 [1]): 16%
- Kd (recombinant human IL-5 [1]): 945 pM
B7: 3A5.494 (antibody, human IgG4 S228P, lambda, name in Kabat numbering, V domains shown)
VH: B1 VH with S98A, S99Q
VL: B1 VL

- % 3A5.040 kd (recombinant human IL-5 [2]): 3%
- Kd (recombinant human IL-5 [2]): 1750 pM
B8: 3A5.497 (antibody, human IgG4 S228P, lambda, name in Kabat numbering, V domains shown)
VH: B1 VH with S98A, S99W
VL: B1 VL

- % 3A5.040 kd (recombinant human IL-5 [1]): 10%
- Kd (recombinant human IL-5 [1]): 3370 pM
B10: 3A5.492 (antibody, human IgG4 S228P, lambda, name in Kabat numbering, V domains shown)
VH: B1 VH with S98A, S99Y
VL: B1 VL
